Source: US7125704B2, “Gluconate dehydratase” (priority 2003, dated 2006)

Experiment: Thermostability and storage stability of purified gluconate dehydratase (remaining activity after standing)
Assay type: physicochemical, Achromobacter xylosoxidans strain ATCC 9220
Experimental: The gluconate dehydratase activity in the present invention produces 2-keto-3-deoxy-D-gluconic acid, using D-gluconic acid as the substrate. The activity can be determined as follows: A reaction mixture in an amount of 1 mL containing […] of a Tris buffer (pH 8.5), 40 μmol of sodium D-gluconate, 1 μmol of magnesium chloride, and the gluconate dehydratase is allowed to react at 37° C. for 10 minutes, and 200 μL of 1 M hydrochloric acid solution is added to the reaction mixture to stop the reaction; and then, the amount of the resulting 2-keto-3-deoxy-D-gluconic acid is determined by high-performance liquid chromatography (column: Shodex Asahipak NH2P-50 4E, produced by Showa Denko, column temperature: 40° C., mobile phase: 50 mM sodium dihydrogen phosphate solution, flow rate: 1 mL/min, detection at 210 nm). An amount of enzyme for catalyzing the production of 1 μmol of 2-keto-3-deoxy-D-gluconic acid for one minute is defined as 1 U. The amount of protein may be determined by a dye-binding method using a Bio-Rad protein assay kit.
Samples of the purified gluconate dehydratase solution prepared in Example 3, which was dissolved in the 30 mM Tris buffer (pH 8.5) containing 1 mM sodium D-gluconate and 1 mM magnesium chloride, […] Another sample was allowed to stand at 4° C. for 7 days and 30 days. […]

B1: Gluconate Dehydratase: heat-resistant gluconate dehydratase purified from Achromobacter xylosoxidans strain ATCC 9220, amino acid sequence SEQ ID NO:2 (protein)
chain: MTDTPRKLRSQKWFDDPAHADMTAIYVERYLNYGLTRQELQSGRPIIGIAQTGSDLAPCNRHHLALAERIKAGIRDAGGIPMEFPVHPLAEQGRRPTAALDRNLAYLGLVEILHGYPLDGVVLTTGCDKTTPACLMAAATVDIPAIVLSGGPMLDGWHDGQRVGSGTVIWHARNLMAAGKLDYEGFMTLATASSPSIGHCNTMGTALSMNSLAEALGMSLPTCASIPAPYRERGQMAYATGLRICDMVREDLRPSRILTREAFENAIVVASALGASSNCPPHLIAMARHAGIDLSLDDWQRLGEDVPLLVNCVPAGEHLGEGFHRAGGVPAVMHELLAAGRLHADCATVSGKTIGEIAAGAKTHDADVIRGCDAPLKHRAGFIVLSGNFFDSAVIKMSVVGEAFRRAYLSAPGDENAFEARAIVFEGPEDYHARIEDPALNIDEHCILVIRGAGTVGYPGSAEVVNMAPPSHLIKRGIDSLPCLGDGRQSGTSASPSILNMSPEAAVGGGLALLRTGDRIRVDLNQRSVIALVDEAELARRRQDPPYQPPPAQTPWQELYRQLVGQLSTGGCLEPSTLYLKVVETRGDPRHSH
modifications: Achromobacter xylosoxidans
buffer, 168 h
  Remaining activity (%): 100%
Storage at 0° C. in Tris buffer (pH 8.0 to 8.8), 1 mM sodium D-gluconate, 1 mM magnesium chloride (same conditions as the M250 report)
  Storage stability of the activity: maintain the activity stably for one month
